This is an account of results in publication PMC5028754 (2016).

Experiment [1] addresses T1, bovine ubiquitin (bovine, UniProt P0CG53 1-76). Briefly: ITC. (In ITC the heat of successive injections is recorded.)
Experiment [2] has as its target T1, bovine ubiquitin. The experiment can be described thus: ITC; one-site model, N=2.

B1: Ddi1 RVP-UBA (180-428) (domain or fragment)
chain: QQAIDEQLRNAIEYTPEMFTQVPMLYINIEINNYPVKAFVDTGAQTTIMSTRLAKKTGLSRMIDKRFIGEARGVGTGKIIGRIHQAQVKIETQYIPCSFTVLDTDIDVLIGLDMLKRHLACVDLKENVLRIAEVETSFLSEAEIPKSFQEGLPAPTSVTTSSDKPLTPTKTSSTLPPQPGAVPALAPRTGMGPTPTGRSTAGATTATGRTFPEQTIKQLMDLGFPRDAVVKALKQTNGNAEFAASLLFQ
With B1, in the experiment with bovine ubiquitin [1], the Ka was 23400 M⁻¹.

B2: full-length yeast Ddi1 (natural protein)
chain: MDLTISNELTGEIYGPIEVSEDMALTDLIALLQADCGFDKTKHDLYYNMDILDSNRTQSLKELGLKTDDLLLIRGKISNSIQTDAATLSDEAFIEQFRQELLNNQMLRSQLILQIPGLNDLVNDPLLFRERLGPLILQRRYGGYNTAMNPFGIPQDEYTRLMANPDDPDNKKRIAELLDQQAIDEQLRNAIEYTPEMFTQVPMLYINIEINNYPVKAFVDTGAQTTIMSTRLAKKTGLSRMIDKRFIGEARGVGTGKIIGRIHQAQVKIETQYIPCSFTVLDTDIDVLIGLDMLKRHLACVDLKENVLRIAEVETSFLSEAEIPKSFQEGLPAPTSVTTSSDKPLTPTKTSSTLPPQPGAVPALAPRTGMGPTPTGRSTAGATTATGRTFPEQTIKQLMDLGFPRDAVVKALKQTNGNAEFAASLLFQ
The molecule B2 yielded a Ka in the experiment with bovine ubiquitin [2] of 3160 M⁻¹.

B3: Ddi1 UBL-RVP (1-325) (domain or fragment)
chain: MDLTISNELTGEIYGPIEVSEDMALTDLIALLQADCGFDKTKHDLYYNMDILDSNRTQSLKELGLKTDDLLLIRGKISNSIQTDAATLSDEAFIEQFRQELLNNQMLRSQLILQIPGLNDLVNDPLLFRERLGPLILQRRYGGYNTAMNPFGIPQDEYTRLMANPDDPDNKKRIAELLDQQAIDEQLRNAIEYTPEMFTQVPMLYINIEINNYPVKAFVDTGAQTTIMSTRLAKKTGLSRMIDKRFIGEARGVGTGKIIGRIHQAQVKIETQYIPCSFTVLDTDIDVLIGLDMLKRHLACVDLKENVLRIAEVETSFLSEAEIPK
Turning to B3, the Ka with bovine ubiquitin [1] came out at 3190 M⁻¹.
